Source: patent US10472401B2, “Peptides and combination of peptides for use in immunotherapy against ovarian cancer and other cancers” (immatics biotechnologies GmbH, priority 2015, dated 2019)

Biological target: HLA-A*02:01 (Homo sapiens, UniProt P04439, D140Y/D185E/D98H/E176V/E277Q/G131W/G231S/I119V/I121R/I166T/I218V/L300P/L318F/N151K/N90K/P208A/P217A/Q86G/Q94H/R138H/R169H/T345S)
Assay: MHC binding assay (UV-ligand exchange, ELISA of stabilized MHC complexes)
Conditions: MHC class I binding score; binding to HLA-A*02:01 ranged by peptide exchange yield (UV-ligand exchange, ELISA)
Method in brief: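 Binding scored as exchange yield, detected via β2m of stabilized complexes in an HRP/TMB ELISA read at 450 nm after streptavidin capture of 100-fold diluted monomers for 1 h at 37 °C. Complexes came from UV irradiation cleaving a photolabile peptide, exchanged for the candidate.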

Substance | Peptide exchange
222 (NLIENVQRL; listed as Homo sapiens) [compound 222] | ″++″ (≥20% = ++)
116 (YHIDEEVGF; listed as Homo sapiens) [compound 116] | ″+″ (≥10% = +)
50 (SLSELEALM; listed as Homo sapiens) [compound 50] | ″+++″ (≥50% = +++)
152 (ILFEDIFDV; listed as Homo sapiens) [compound 152] | ″+++″ (≥50% = +++)
159 (GLVGNPLPSV; listed as Homo sapiens) [compound 159] | ″++++″ (≥75% = ++++)
22 (IMEENPGIFAV; listed as Homo sapiens) [compound 22] | ″+++″ (≥50% = +++)
569 (KLVDRTWTL; listed as Homo sapiens) [compound 569] | ″+++″ (≥50% = +++)
401 (ILLDDTGLAYI; listed as Homo sapiens) [compound 401] | ″+++″ (≥50% = +++)
579 (NLMEMVAQL; listed as Homo sapiens) [compound 579] | ″++″ (≥20% = ++)
270 (LLLDEEGTFSL; listed as Homo sapiens) [compound 270] | ″++″ (≥20% = ++)
7 (SLVGLLLYL; listed as Homo sapiens) [compound 7] | ″++++″ (≥75% = ++++)
89 (YILPTETIYV; listed as Homo sapiens) [compound 89] | ″++++″ (≥75% = ++++)
488 (FLAEDPKVTL; listed as Homo sapiens) [compound 488] | ″+++″ (≥50% = +++)
610 (LLAPTPYIIGV; listed as Homo sapiens) [compound 610] | ″+++″ (≥50% = +++)
542 (RVWDISTVSSV; listed as Homo sapiens) [compound 542] | ″+++″ (≥50% = +++)
321 (GLFEDVTQPGILL; listed as Homo sapiens) [compound 321] | ″++++″ (≥75% = ++++)
591 (SMAELDIKL; listed as Homo sapiens) [compound 591] | ″+++″ (≥50% = +++)
298 (VMITKLVEV; listed as Homo sapiens) [compound 298] | ″+++″ (≥50% = +++)
229 (RLPGPLGTV; listed as Homo sapiens) [compound 229] | ″++″ (≥20% = ++)
181 (LLWAGTAFQV; listed as Homo sapiens) [compound 181] | ″+++″ (≥50% = +++)

Substance | Peptide exchange
192 (KMLDGASFTL; listed as Homo sapiens) [compound 192] | ″+++″ (≥50% = +++)
182 (MLLEAPGIFL; listed as Homo sapiens) [compound 182] | ″+++″ (≥50% = +++)
115 (AIAGAGILYGV; listed as Homo sapiens) [compound 115] | ″++″ (≥20% = ++)
598 (FLFPHSVLV; listed as Homo sapiens) [compound 598] | ″+++″ (≥50% = +++)
26 (ALLELAEEL; listed as Homo sapiens) [compound 26] | ″+++″ (≥50% = +++)
297 (VLADIELAQA; listed as Homo sapiens) [compound 297] | ″+++″ (≥50% = +++)
301 (FLVEDLVDSL; listed as Homo sapiens) [compound 301] | ″+++″ (≥50% = +++)
472 (KLLEVSDDPQV; listed as Homo sapiens) [compound 472] | ″+++″ (≥50% = +++)
241 (SLVEVNPAYSV; listed as Homo sapiens) [compound 241] | ″+++″ (≥50% = +++)
379 (IMEGTLTRV; listed as Homo sapiens) [compound 379] | ″++″ (≥20% = ++)
594 (IMLKGDNITL; listed as Homo sapiens) [compound 594] | ″+++″ (≥50% = +++)
138 (YQYPRAILSV; listed as Homo sapiens) [compound 138] | ″+++″ (≥50% = +++)
19 (FMVDNEAIYDI; listed as Homo sapiens) [compound 19] | ″++++″ (≥75% = ++++)
509 (FLFDTKPLIV; listed as Homo sapiens) [compound 509] | ″+++″ (≥50% = +++)
191 (LLQEGQALEYV; listed as Homo sapiens) [compound 191] | ″++″ (≥20% = ++)
295 (VLDRESPNV; listed as Homo sapiens) [compound 295] | ″+++″ (≥50% = +++)
227 (ALMNTLLYL; listed as Homo sapiens) [compound 227] | ″++″ (≥20% = ++)
246 (LLWEVVSQL; listed as Homo sapiens) [compound 246] | ″+++″ (≥50% = +++)
589 (KLYPQLPAEI; listed as Homo sapiens) [compound 589] | ″+++″ (≥50% = +++)
508 (ILAQEQLVVGV; listed as Homo sapiens) [compound 508] | ″+++″ (≥50% = +++)

Substance | Peptide exchange
608 (SLLSVSHAL; listed as Homo sapiens) [compound 608] | ″+++″ (≥50% = +++)
552 (GLLDLPFRVGV; listed as Homo sapiens) [compound 552] | ″++++″ (≥75% = ++++)
515 (LLQELVLFL; listed as Homo sapiens) [compound 515] | ″+++″ (≥50% = +++)
439 (YLLQEIYGI; listed as Homo sapiens) [compound 439] | ″+++″ (≥50% = +++)
251 (ALYTGFSILV; listed as Homo sapiens) [compound 251] | ″++″ (≥20% = ++)
572 (ALADLIEKELSV; listed as Homo sapiens) [compound 572] | ″+++″ (≥50% = +++)
635 (SLDSTLHAV; listed as Homo sapiens) [compound 635] | ″+++″ (≥50% = +++)
478 (YLLHEKLNL; listed as Homo sapiens) [compound 478] | ″+++″ (≥50% = +++)
303 (AILPQLFMV; listed as Homo sapiens) [compound 303] | ″++++″ (≥75% = ++++)
448 (NLLETKLQL; listed as Homo sapiens) [compound 448] | ″+++″ (≥50% = +++)
512 (SLSEIVPCL; listed as Homo sapiens) [compound 512] | ″+++″ (≥50% = +++)
18 (YLVAKLVEV; listed as Homo sapiens) [compound 18] | ″++″ (≥20% = ++)
402 (VLFSGALLGL; listed as Homo sapiens) [compound 402] | ″++″ (≥20% = ++)
428 (KLGHTDILVGV; listed as Homo sapiens) [compound 428] | ″++″ (≥20% = ++)
122 (FLLAEDDIYL; listed as Homo sapiens) [compound 122] | ″+++″ (≥50% = +++)
207 (GLTSTNAEV; listed as Homo sapiens) [compound 207] | ″++″ (≥20% = ++)
94 (YLIDIKTIAI; listed as Homo sapiens) [compound 94] | ″++″ (≥20% = ++)
188 (GLFPVTPEAV; listed as Homo sapiens) [compound 188] | ″+++″ (≥50% = +++)
